Settings in all cases: remark: other sources report otherwise
Assay [1] has as its target T1, complement factor H, native glycosylated, full-length, purified from human plasma (human), P08603.
T1 chain: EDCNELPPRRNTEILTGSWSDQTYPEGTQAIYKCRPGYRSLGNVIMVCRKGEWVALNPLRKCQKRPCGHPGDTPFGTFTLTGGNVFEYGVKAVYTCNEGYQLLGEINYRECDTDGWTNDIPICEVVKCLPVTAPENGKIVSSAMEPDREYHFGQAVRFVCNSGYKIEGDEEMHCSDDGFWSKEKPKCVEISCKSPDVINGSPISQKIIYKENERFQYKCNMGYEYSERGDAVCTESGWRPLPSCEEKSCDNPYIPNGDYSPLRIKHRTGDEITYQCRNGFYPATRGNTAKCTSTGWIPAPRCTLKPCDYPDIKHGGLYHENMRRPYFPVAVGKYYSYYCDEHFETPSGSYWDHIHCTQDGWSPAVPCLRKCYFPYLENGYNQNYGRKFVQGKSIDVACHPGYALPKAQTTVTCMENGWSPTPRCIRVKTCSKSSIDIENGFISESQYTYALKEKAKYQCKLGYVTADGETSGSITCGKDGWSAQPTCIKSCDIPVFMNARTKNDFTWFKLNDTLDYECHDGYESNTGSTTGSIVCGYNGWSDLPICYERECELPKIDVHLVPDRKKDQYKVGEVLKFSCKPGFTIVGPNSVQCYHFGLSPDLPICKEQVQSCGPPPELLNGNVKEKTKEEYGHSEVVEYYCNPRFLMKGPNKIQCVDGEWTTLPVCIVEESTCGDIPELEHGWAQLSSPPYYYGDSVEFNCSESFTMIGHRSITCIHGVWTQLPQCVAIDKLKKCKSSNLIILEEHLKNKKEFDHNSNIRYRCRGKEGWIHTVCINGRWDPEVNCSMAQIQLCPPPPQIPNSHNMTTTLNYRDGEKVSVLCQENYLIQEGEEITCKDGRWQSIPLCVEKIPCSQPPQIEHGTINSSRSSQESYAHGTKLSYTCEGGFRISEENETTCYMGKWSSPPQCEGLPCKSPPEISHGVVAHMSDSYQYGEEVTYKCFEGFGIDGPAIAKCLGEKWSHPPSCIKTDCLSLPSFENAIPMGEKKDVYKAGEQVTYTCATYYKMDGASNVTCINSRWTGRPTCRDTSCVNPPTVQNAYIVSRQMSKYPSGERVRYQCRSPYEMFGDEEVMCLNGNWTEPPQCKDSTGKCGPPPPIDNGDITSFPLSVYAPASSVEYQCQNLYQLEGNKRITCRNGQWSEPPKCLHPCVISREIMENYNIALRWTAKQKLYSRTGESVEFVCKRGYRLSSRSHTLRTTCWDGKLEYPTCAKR
Briefly: AUC; sedimentation velocity of full-length CFH, 20 °C, 40,000 rpm, Hepes buffer, 0.2 to 1.8 mg/ml, c(s) analysis in SEDFIT, proportions from peak integration; monomer to dimer.

The target in assay [2] is T1, complement factor H, native …. Briefly: SPR; Biacore X100, biotinylated glycosylated CFH on a streptavidin chip (781 RU), CFH preparations flowed at 0.01 to 1.8 μM, Hepes buffer, single-cycle, 1:1 steady-state affinity fit.
Assay [3] has as its target T2, fully deglycosylated complement factor H (200 h PNGase F) (human), P08603.
T2 chain: T1 chain
Kind of assay: AUC; sedimentation velocity of full-length CFH, 20 °C, 40,000 rpm, Hepes buffer, 0.2 to 1.8 mg/ml, c(s) analysis in SEDFIT, proportions from peak integration; monomer to dimer.

In assay [4] the target is T3, partially deglycosylated complement factor H (100 h PNGase F) (human), P08603.
T3 chain: T1 chain
Described as above.

The values that follow come from publication PMC11417181.

For orientation: stoichiometry N means the number of molecules, sites or subunits per partner or assembly. Broadly, the Kd is the concentration at which binding is half-saturated.

B1: complement factor H, native glycosylated, full-length, purified from human plasma, P08603 19-1231 (natural protein)
chain: T1 chain
modifications: here or on the partner: eight N-linked biantennary complex-type glycans, among them those at Asn1011 (SCR-17) and Asn1077 (SCR-18); eight N-linked biantennary complex-type glycans, among them those at Asn1011 (SCR-17) and Asn1077 (SCR-18)
In assay [1], B1 had a proportion of dimer of 4% and a stoichiometry N of 2. In assay [2], the Kd worked out at 1.6 µM.

B2: fully deglycosylated complement factor H (200 h PNGase F), P08603 19-1231 (natural protein)
chain: T1 chain
modifications: here or on the partner: N-linked glycans removed with PNGase F: eight, seven, six or five removed, leaving none, one, two or three glycans; N-linked glycans removed with PNGase F: eight, seven, six or five removed, leaving none, one, two or three glycans
B2: in assay [3], the proportion of dimer came out at 16% and the stoichiometry N worked out at 2. For the same molecule, in assay [2], the Kd was 11.5 µM.

B3: partially deglycosylated complement factor H (100 h PNGase F), P08603 19-1231 (natural protein)
chain: T1 chain
modifications: here or on the partner: N-linked glycans partly removed with PNGase F: forms with three to six glycan chains were present; N-linked glycans partly removed with PNGase F: forms with three to six glycan chains were present
In assay [4], B3 had a proportion of dimer of 15% and a stoichiometry N of 2.
